# Laboratory results as given in patent US20240409960A1, “METHOD FOR CONTROLLING PROTEIN FUNCTION” (The University of Tokyo, priority 2021, published 2024).
# B1: SPEED-Dre: split Dre (a.a. 2-150 and 151-342), single DD on the N-terminal and C-terminal sides; SEQ ID No: 24 (protein)
# chain: MVSKYPYDVPDYARSGGSGGMISLIAALAVDYVIGMENAMPWNLPADLAWFKRNTLNKPVIMGRHTWESIGRPLPGRKNIILSSQPSTDDRVTWVKSVDEAIAACGDVPEIMVIGGGRVIEQFLPKAQKLYLTHIDAEVEGDTHFPDYEPDDWESVFSEFHDADAQNSHSYCFEILERRGGSGGSGGKLVPKKKRKVGGSELIISGSSGGFLRNIGKEYQEAAENFMRFMNDQGAYAPNTLRDLRLVFHSWARWCHARQLAWFPISPEMAREYFLQLHDADLASTTIDKHYAMLNMLLSHCGLPPLSDDKSVSLAMRRIRREAATEKGERTGQAIPLRWDDLKLLDVLLGSGSGATNFSLLKQAGDVEENPGPLESRSERLVDLRNRAFLFVAYNTLMRMSEISRIRVGDLDQTGDTVTLHISHTKTITTAAGLDKVLSRRTTAVLNDWLDVSGLREHPDAVLFPPIHRSNKARITTTPLTAPAMEKIFSDAWVLLNKRDATPNKGRYRTWTGHSARVGAAIDMAEKQVSMVEIMQEGTWKKPETLMRYLRRGGVSVGANSRLMDSGGSGGSGGMISLIAALAVDYVIGMENAMPWNLPADLAWFKRNTLNKPVIMGRHTWESIGRPLPGRKNIILSSQPSTDDRVTWVKSVDEAIAACGDVPEIMVIGGGRVIEQFLPKAQKLYLTHIDAEVEGDTHFPDYEPDDWESVFSEFHDADAQNSHSYCFEILERR
# modifications: MISC_FEATURE - HAtag; DOMAIN 21..179 Degradation Domain; SIGNAL 190..197 Nuclear Localization Signal; MISC_FEATURE - N-terminal side of Dre; MISC_FEATURE - P2A; MISC_FEATURE - C-terminal side of Dre; DOMAIN 575..733 Degradation Domain; Bacteriophage D6
# Tested on: rox sites (Floxed (rox)-STOP Fluc reporter) in HEK293 cells
# Assay: luciferase assay of Dre-rox DNA recombination in HEK293 cells
# Type: cell-based, human
# Conditions: 5 ng plasmid, TMP 10 nM or 500 nM or DMSO, 24 or 48 hours
# Experimental: For constructing the luciferase reporters detecting for the activities of Flp-FRT recombinase, VCre-Vlox recombinase and Dre-rox recombinase, the FRT site ([…]: SEQ ID No: 37), the Vlox site ([…]: SEQ ID No: 38), the rox site ([…]: SEQ ID No: 39), were inserted into HindIII and KpnI sites and ClaI and EcoRI sites in the pcDNA3.1 (+) vector of the luciferase reporter (of loxP-stop-loxP-Fluc).
# For luciferase assay, HEK 293 cells were plated at 25,000 cells per well on a 96-well flat white microplate (Thermo Fisher Scientific), and were then cultured for 24 hours at 37° C. in 5% CO2. The cells were transfected with cDNAs encoding destabilized Cre along with the luciferase reporter (loxP-stop-loxP Fluc), using X-tremeGENE9 reagent (Merck Millipore) at 37° C. The total amount of DNA was 50 ng per well. Twenty-four hours after the transfection, TMP or DMSO was added into the cells, and the cells were further cultured for 24 hours or 48 hours. Just before the luciferase assay, the medium was replaced with Hanks' balanced salt solution (HBSS) (Thermo Fisher Scientific) containing 0.2 mM D-luciferin potassium salt. Bioluminescence measurement was performed for 1 second per well at room temperature using a Centro XS^3 LB 960 plate-reading luminometer (Berthold Technologies).
molecule,measurement,value
B1,background and TMP-dependent DNA recombination activity,results similar to those of SPEED-Cre
